Data on one molecule can be found in US10495630B2, “Methods for the determination of compounds or compositions for the treatment of lipofuscin related diseases and compounds or compositions” (KATAIRO GMBH, priority 2014, dated 2019).

The test system of this experiment is Abca4 (−/−) mice. Put plainly: A2E concentration in eyes of Abca4 (−/−) mice after intravitreal injection, HPLCMSMS
The format is in vivo. The note with it: redox active and chelating protein; intravitreal 2 μl of 20 mg/ml; one week after injection. From the text:
[…] […] The left eye was not treated and maintained as a control. Untreated eyes of age-matched mice lacking the Abca4 transporter were an additional control.
The concentration in each treated eye was then expressed as a percentage of the average concentration in all untreated eyes in the mice of the same age.
The left eye was not treated and maintained as a control. Untreated eyes of age-matched mice lacking the Abca4 transporter were an additional control.
The left eye was not treated and maintained as a control. Untreated eyes of age-matched mice lacking the Abca4 transporter were an additional control. […] Tryptophan is capable of absorbing and re-radiating light energy, as is riboflavin.
Water solutions were diluted 1:3 with acetonitrile and then sealed in vials for injection. 6 μL of the water acetonitrile solutions were injected onto a 2×50 mm Phenyl derived HPLC column (3 μm) and eluted with a gradient from 20% acetonitrile to 100% acetonitrile over 4 minutes at a flow rate of 500 μL/minute.

B1: Lactoferrin: protein capable of binding iron with high affinity (protein, UniProt P02788 20-710, looked up)
Lactotransferrin: GRRRSVQWCAVSQPEATKCFQWQRNMRKVRGPPVSCIKRDSPIQCIQAIAENRADAVTLDGGFIYEAGLAPYKLRPVAAEVYGTERQPRTHYYAVAVVKKGGSFQLNELQGLKSCHTGLRRTAGWNVPIGTLRPFLNWTGPPEPIEAAVARFFSASCVPGADKGQFPNLCRLCAGTGENKCAFSSQEPYFSYSGAFKCLRDGAGDVAFIRESTVFEDLSDEAERDEYELLCPDNTRKPVDKFKDCHLARVPSHAVVARSVNGKEDAIWNLLRQAQEKFGKDKSPKFQLFGSPSGQKDLLFKDSAIGFSRVPPRIDSGLYLGSGYFTAIQNLRKSEEEVAARRARVVWCAVGEQELRKCNQWSGLSEGSVTCSSASTTEDCIALVLKGEADAMSLDGGYVYTAGKCGLVPVLAENYKSQQSSDPDPNCVDRPVEGYLAVAVVRRSDTSLTWNSVKGKKSCHTAVDRTAGWNIPMGLLFNQTGSCKFDEYFSQSCAPGSDPRSNLCALCIGDEQGENKCVPNSNERYYGYTGAFRCLAENAGDVAFVKDVTVLQNTDGNNNEAWAKDLKLADFALLCLDGKRKPVTEARSCHLAMAPNHAVVSRMDKVERLKQVLLHQQAKFGRNGSDCPDKFCLFQSETKNLLFNDNTECLARLHGKTTYEKYLGPQYVAGITNLKKCSTSPLLEACEFLRK
With B1, the “% of A2E relative to age matched untreated” value is on record as 63% and the “Concentration A2E (μM) in the treated eye” value was 20 µM.
